Patent US12269859B2, “Synthetic immune receptors and methods of use thereof” (Angeles Therapeutics, Inc., priority 2016, dated 2025)

B1: 032216-C04 (protein)
chain: MALPVTALLLPLALLLHAARPDIVLTQSPATLSLSPGDRATISCRASESVTILGSHLIYWYQQKPGQPPRLLIQLASNVQTGVPARFSGSGSRTDFTLTISSVEPEDFAVYYCLQSRTIPRTFGQGTKLEIKRLEGKPIPNPLLGLDSTGSGEDLKNVFPPEVAVFEPSKAEIAHTQKATLVCLATGFYPDHVELSWWVNGKEVHSGVCTDPQPLKEQPALNDSRYCLSSRLRVSATFWQNPRNHFRCQVQFYGLSENDEWTQDRAKPVTQIVSAEAWGRADCGITSASYHQGVLSATILYEILLGKATLYAVLVSALVLMAMVKRKDSRGRAKRSGSGATNFSLLKQAGDVEENPGPTSMDWIWRILFLVGAATGAHSFEQVQLVQSGPEVKKPGESVKISCKASGYTFRHYSMNWVKQAPGQGLKWMGRINTESGVPIYADDFKGRFSFTVDTSASTAYLEISSLTSEDTAVYFCSNDYLYSLDFWGQGTTLTVSSTREQKLISEEDGSGIQNPDPAVYQLRDSKSSDKSVCLFTDFDSQTNVSQSKDSDVYITDKCVLDMRSMDFKSNSAVAWSNKSDFACANAFNNSIIPEDTFFPSSDVPCDVKLVEKSFETDTNLNFQNLSVIGFRILLLKVAGFNLLMTLRLWSSRAKRSGSGVKQTLNFDLLKLAGDVESNPGPSRGHMTEYKPTVRLATRDDVPRAVRTLAAAFADYPATRHTVDPDRHIERVTELQELFLTRVGLDIGKVWVADDGAAVAVWTTPESVEAGAVFAEIGPRMAELSGSRLAAQQQMEGLLAPHRPKEPAWFLATVGVSPDHQGKGLGSAVVLPGVEAAERAGVPAFLETSAPRNLPFYERLGFTVTADVEVPEGPRTWCMTRKPGA
modifications: Polynucleotide encoding a Synthetic Immune Receptor (SIR)
B2: 022817-J01 (protein)
chain: MALPVTALLLPLALLLHAARPLEGKPIPNPLLGLDSTGSGEDLKNVFPPEVAVFEPSKAEIAHTQKATLVCLATGFYPDHVELSWWVNGKEVHSGVCTDPQPLKEQPALNDSRYCLSSRLRVSATFWQNPRNHFRCQVQFYGLSENDEWTQDRAKPVTQIVSAEAWGRADCGITSASYHQGVLSATILYEILLGKATLYAVLVSALVLMAMVKRKDSRGRAKRSGSGATNFSLLKQAGDVEENPGPTSMALPVTALLLPLALLLHAARPQIVLTQSPATLSASPGEKATMTCSASSGVNYMHWYQQKPGTSPKRWIYDTDKTASGVPARFSGSGSGTSYSLTISSMEAEDAATYYCHQRGSYTFGGGTKLEIKGGGGSGGGGSGGGGSQVQLEQPGAEVVKPGASVKVSCKTSGYTFTSNWMHWVKQTPGKGLEWIGEIDPSDSYTNYNQKFDGKAKLTVDKSSSTAYMEVSDLTAEDSATYYCARGSNPYYYAMDYWGQGTSVTVSSTREQKLISEEDGSGIQNPDPAVYQLRDSKSSDKSVCLFTDFDSQTNVSQSKDSDVYITDKCVLDMRSMDFKSNSAVAWSNKSDFACANAFNNSIIPEDTFFPSSDVPCDVKLVEKSFETDTNLNFQNLSVIGFRILLLKVAGFNLLMTLRLWSSRAKRSGSGVKQTLNFDLLKLAGDVESNPGPSRGHMTEYKPTVRLATRDDVPRAVRTLAAAFADYPATRHTVDPDRHIERVTELQELFLTRVGLDIGKVWVADDGAAVAVWTTPESVEAGAVFAEIGPRMAELSGSRLAAQQQMEGLLAPHRPKEPAWFLATVGVSPDHQGKGLGSAVVLPGVEAAERAGVPAFLETSAPRNLPFYERLGFTVTADVEVPEGPRTWCMTRKPGA
B3: 070517-G02 (protein)
chain: MALPVTALLLPLALLLHAARPLETPFPSLAPPIMLLVDGKQQMVVVCLVLDVAPPGLDSPIWFSAGNGSALDAFTYGPSPATDGTWTNLAHLSLPSEELASWEPLVCHTGPGAEGHSRSTQPMHLSGEASTARTCPQEPLRGTPGGALWLGVLRLLLFKLLLFDLLLTCSCLCDPAGPLPSPATTTRLRALGSHRLHPATETGGREATSSPRPQPRDRRWGDTPPGRKPGSPVRAKRSGSGVKQTLNFDLLKLAGDVESNPGPTSTMALPVTALLLPLALLLHAARPDIQMTQSPSSLSASVGDRVTITCKASDHINNWLAWYQQKPGQAPKLLIYGATTLETGVPSRFSGSGSGTDYTLTISSLQPEDFATYYCQQSWNTPWTFGQGTKLEIKRGGGGSGGGGSGGGGSQVQLQQPGAELVKPGASVKMSCKASGYAFSSYWINWMKQKPGQGLEWIGQIYPGDGDTNYNGKFKGRATLTADTSSSTAYMQLSSLTSEDSAVYFCARSITTVVGCAMDYWGQGTSVTVSSTRGKPIPNPLLGLDSTGSGEDLKNVFPPEVAVFEPSEAEISHTQKATLVCLATGFYPDHVELSWWVNGKEVHSGVCTDPQPLKEQPALNDSRYCLSSRLRVSATFWQNPRNHFRCQVQFYGLSENDEWTQDRAKPVTQIVSAEAWGRADCGFTSESYQQGVLSATILYEILLGKATLYAVLVSALVLMAMVKRKDSRGRAKRSGSGATNFSLLKQAGDVEENPGPSRGHMTEYKPTVRLATRDDVPRAVRTLAAAFADYPATRHTVDPDRHIERVTELQELFLTRVGLDIGKVWVADDGAAVAVWTTPESVEAGAVFAEIGPRMAELSGSRLAAQQQMEGLLAPHRPKEPAWFLATVGVSPDHQGKGLGSAVVLPGVEAAERAGVPAFLETSAPRNLPFYERLGFTVTADVEVPEGPRTWCMTRKPGA
B4: 110217-A03 (protein)
chain: MALPVTALLLPLALLLHAARPDVVMTQSPSSLSASVGDRVTITCRASQDISKYLNWYQQKPGKAPKLLIYHTSRLHSGVPSRFSGSGSGTDFTLTISSLQPEDFATYYCQQGNTLPYTFGGGTKVEIKLEDLKNVFPPEVAVFCPSEAEISHTQKATLVCLATGFYPDHVELSWWVNGKEVHSGVSTDPQPLKEQPALNDSRYCLSSRLRVSATFWQNPRNHFRCQVQFYGLSENDEWTQDRAKPVTQIVSAEAWGRADCGFTSESYQQGVLSATILYEILLGKATLYAVLVSALVLMAMVKRKDSRGRAKRSGSGATNFSLLKQAGDVEENPGPTSMDWIWRILFLVGAATGAHSFEQVQLQESGPGLVKPSQTLSLTCTVSGVSLPDYGVSWIRQPPGKGLEWIGVIWGSETTYYNSALKSRVLISVDTSKNQVSLKLSSVTAADTAVYYCARHYYYGGSYAMDYWGQGTTVTVSSTRIQNPDPAVYQLRDCKSSDKSVCLFTDFDSQTNVSQSKDSDVYITDKTVLDMRSMDFKSNSAVAWSNKSDFACANAFNNSIIPEDTFFPSPESSCDVKLVEKSFETDTNLNFQNLSVIGFRILLLKVAGFNLLMTLRLWSS
B5: 022817-K08 (protein)
chain: MALPVTALLLPLALLLHAARPQIVLTQSPATLSASPGEKATMTCSASSGVNYMHWYQQKPGTSPKRWIYDTDKTASGVPARFSGSGSGTSYSLTISSMEAEDAATYYCHQRGSYTFGGGTKLEIKLEEQKLISEEDLGSGEDLKNVFPPEVAVFEPSKAEIAHTQKATLVCLATGFYPDHVELSWWVNGKEVHSGVCTDPQPLKEQPALNDSRYCLSSRLRVSATFWQNPRNHFRCQVQFYGLSENDEWTQDRAKPVTQIVSAEAWGRADCGITSASYHQGVLSATILYEILLGKATLYAVLVSALVLMAMVKRKDSRGRAKRSGSGATNFSLLKQAGDVEENPGPTSMDWIWRILFLVGAATGAHSFEQVQLEQPGAEVVKPGASVKVSCKTSGYTFTSNWMHWVKQTPGKGLEWIGEIDPSDSYTNYNQKFDGKAKLTVDKSSSTAYMEVSDLTAEDSATYYCARGSNPYYYAMDYWGQGTSVTVSSTREQKLISEEDLGSGIQNPDPAVYQLRDSKSSDKSVCLFTDFDSQTNVSQSKDSDVYITDKCVLDMRSMDFKSNSAVAWSNKSDFACANAFNNSIIPEDTFFPSSDVPCDVKLVEKSFETDTNLNFQNLSVIGFRILLLKVAGFNLLMTLRLWSSRAKRSGSGVKQTLNFDLLKLAGDVESNPGPSRGHMTEYKPTVRLATRDDVPRAVRTLAAAFADYPATRHTVDPDRHIERVTELQELFLTRVGLDIGKVWVADDGAAVAVWTTPESVEAGAVFAEIGPRMAELSGSRLAAQQQMEGLLAPHRPKEPAWFLATVGVSPDHQGKGLGSAVVLPGVEAAERAGVPAFLETSAPRNLPFYERLGFTVTADVEVPEGPRTWCMTRKPGA
B6: 070517-H02 (protein)
chain: MALPVTALLLPLALLLHAARPLEGKPIPNPLLGLDSTGSGEDLKNVFPPEVAVFEPSKAEIAHTQKATLVCLATGFYPDHVELSWWVNGKEVHSGVCTDPQPLKEQPALNDSRYCLSSRLRVSATFWQNPRNHFRCQVQFYGLSENDEWTQDRAKPVTQIVSAEAWGRADCGITSASYHQGVLSATILYEILLGKATLYAVLVSALVLMAMVKRKDSRGRAKRSGSGATNFSLLKQAGDVEENPGPTSMALPVTALLLPLALLLHAARPDIQMTQSPSSLSASVGDRVTITCKASDHINNWLAWYQQKPGQAPKLLIYGATTLETGVPSRFSGSGSGTDYTLTISSLQPEDFATYYCQQSWNTPWTFGQGTKLEIKRGGGGSGGGGSGGGGSQVQLQQPGAELVKPGASVKMSCKASGYAFSSYWINWMKQKPGQGLEWIGQIYPGDGDTNYNGKFKGRATLTADTSSSTAYMQLSSLTSEDSAVYFCARSITTVVGCAMDYWGQGTSVTVSSTREQKLISEEDGSGIQNPDPAVYQLRDSKSSDKSVCLFTDFDSQTNVSQSKDSDVYITDKCVLDMRSMDFKSNSAVAWSNKSDFACANAFNNSIIPEDTFFPSSDVPCDVKLVEKSFETDTNLNFQNLSVIGFRILLLKVAGFNLLMTLRLWSSRAKRSGSGVKQTLNFDLLKLAGDVESNPGPSRGHMTEYKPTVRLATRDDVPRAVRTLAAAFADYPATRHTVDPDRHIERVTELQELFLTRVGLDIGKVWVADDGAAVAVWTTPESVEAGAVFAEIGPRMAELSGSRLAAQQQMEGLLAPHRPKEPAWFLATVGVSPDHQGKGLGSAVVLPGVEAAERAGVPAFLETSAPRNLPFYERLGFTVTADVEVPEGPRTWCMTRKPGA

Tested on: target antigen-expressing cell line
Experiment: Jurkat NFAT-GFP assay, coculture with target cell lines expressing the respective target antigen (summary Table 10A)
Assay type: cell-based, human
Set-up: key: The signs +/−, +, 2+ etc. after the name of the cell lines indicate the relative degree of positivity on the Jurkat-NFAT-GFP assay as measured by the % GFP positive cells; +: relative degree of positivity on the Jurkat-NFAT-GFP assay as measured by the % GFP positive cells; 2+: relative degree of positivity on the Jurkat-NFAT-GFP assay as measured by the % GFP positive cells
Conditions: relative % GFP positive cells; for NFAT-GFP ASSAY Positive Cell lines: RAJI: SIR-expressing Jurkat-NFAT-GFP cells cocultured with RAJI; for NFAT-GFP ASSAY Positive Cell lines: NALM6: SIR-expressing Jurkat-NFAT-GFP cells cocultured with NALM6
How it was run: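 Jurkat cells carrying an NFAT-site IL-2 promoter driving GFP were lentivirally transduced with SIRs, puromycin-selected, then cocultured with antigen-expressing target cells at E:T about 1:2 for about 4–18 hours. GFP induction was read by flow cytometry as % GFP-positive cells versus parental Jurkat-NFAT-GFP.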

Molecule | NFAT-GFP ASSAY Positive Cell lines: RAJI | NFAT-GFP ASSAY Positive Cell lines: NALM6
B1 | 2+ | –
B2 | RAJI (+), NALM6 | (+/−)
B3 | RAJI (+), NALM6 | (+/−)
B4 | RAJI (+/−), NALM6 | (+/−)
B5 | RAJI (+), NALM6 | (+/−)
B6 | RAJI (2+), NALM6 | (+)
